Test results reported in paper PMC10267556.

Molecular target: SARS-CoV-2 Omicron BA.4/5 spike (S) trimer, prefusion-stabilised ectodomain (SARS-CoV-2 (Omicron BA.4/5) | bacteriophage T4) (UniProt P0DTC2)
Assay: cryo-EM structure

## SARS-CoV-2 Omicron BA.4/5 spike (S) trimer, prefusion-stabilised ectodomain (from UniProt P0DTC2 14-1208) (complex)
  stoichiometry N: 3
